According to the supplement of paper PMC9170038:

Tested on: MS2 coat protein
Assay: apparent KD of MS2 coat protein; designed switch direction (-1 OFF switch, 1 ON switch): -1; higher = weaker reporter binding
How it was run: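 Normalised cluster fluorescence was curve-fitted, and each design's median over clusters is its apparent KD. Before this, SNAP-549-labelled MS2 coat protein was titrated from 0.7 or 1.5 nM, doubling to 3 µM, over RNA switches transcribed on Illumina chips by stalled E. coli RNA polymerase. Titrations had no input, 200 uM small-molecule ligand, or an oligonucleotide input, and steps lasted 0.8–1.5 h (lowest) to 10–20 min (highest).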

[1] = Eterna round: R95, input ligand: FMN 200 uM
[2] = Eterna round: R95, input ligand: microRNA oligo, concentration not stated
[3] = Eterna round: R95, input ligand: none
[4] = input ligand: microRNA oligo, concentration not stated

Sequence | apparent KD of MS2 coat protein [1] [nM] | apparent KD of MS2 coat protein [2] [nM] | apparent KD of MS2 coat protein [3] [nM] | apparent KD of MS2 coat protein (input ligand: FMN 200 uM) [nM] | apparent KD of MS2 coat protein [4] [nM] | apparent KD of MS2 coat protein (input ligand: none) [nM]
UUAUUUAGUGUGAGGAUAUGCUGGUCGAUAGAUCAGCAGAAGGCACAUGAGGAUCACCCAUGUAAUAUAUUAAU [Mat - Exclusion 4 - JL Mod - D33] (puzzle: Brourd's mod of Exclusion 4) | 395 | 50 | 72.7 |  |  | 
GCGUGACAUGAGGAUCACCCAUGUGAGGAUAUCUGGAUAAUUUUUAUUUUAGAUAUCCAGAGAAGGCACAUGCU [Ex1-3: 2Z] (puzzle: Exclusion 1) |  | 62.4 |  |  |  | 
CAAUAUUAUCGAGGAUAUCCUAUUGUAUUUCAGGGAGAAGGCGGACUCAACAUGAGGAUCACCCAUGUAAGACGGGUACUAGAU [Ex NG1 #19] (Eterna round: R96, puzzle: Exclusion NG 1) |  |  |  | 92.2 | 69.8 | 89.7
GUGGUACAUGAGGAUCACCCAUGUUAGGAUAUCGCGUGGUUUUUUGCGGCCGCGCGCGCGAGAAGGGACGUCUU (puzzle: Exclusion 1) |  | 29.3 |  |  |  | 
UGUAGGUCUACCUUGGUGGAUCUGCAUUUUUGCAGGUGUACAUGAGGAUCACCCAUGUCCUCAUUUGCUCGUCUUAU [JL turnoff v2 99.31] (puzzle: Sensor v3, turn-off variant 2) | 467 | 560 | 542 |  |  | 
UUGGUUGUGGUAGGAUAUCCGUUGGAAACUGUUGGAGAAGGACCACAGUCACUGGGUCCUUGUUUGGUGGAGUGGAAGAACCAU [pwkr exNG1 F6.16] (Eterna round: R96, puzzle: Exclusion NG 1) |  |  |  | 453 | 294 | 329
GGAUUACAUGAGGAUCACCCAUGUGAGGAUAUCGAUGUCCAGUAAUACGUGCGGGACUCGAGAAGGCACUUGGA [salish99-ex1-70] (Eterna round: R96, puzzle: Exclusion 1) |  |  |  | 432 | 80.7 | 96.3
AAUAAAACAUAGGAUAUCGAAUUUAUUAUUUAACGAGAAGGAUGAACAUGAGGAUCACCCAUGUGGUAUCAUGG [Mat - Exclusion 6 - JL Mod - D24] (puzzle: Exclusion 6) | 258 | 190 | 207 |  |  | 
CUUUUGUGAGGAUAUUAGUAGUAAAUGAAUAAAAUUAUUACUGAGAAGGCACAUGAGGAUCACCCAUGUUCCUU [Mat - Exclusion 4 - Eli Mod - D19] (Eterna round: R97, puzzle: Exclusion 4) |  |  |  | 83.6 |  | 14.6
AUAUAGAUAGUCAGGAUAUUCUAGUGAUAACAGUAGGAGAAGGGACAUGAGGAUCACCCAUGUAGAUAGUGCAC [Brourd's EX4 #15] (Eterna round: R97, puzzle: Brourd's mod of Exclusion 4) |  |  |  | 42.9 |  | 27
CCGGAAUAACAGGAUAUAGGAGUCGAUAGACACCUAGAAGGGUUGACAUGAGGAUCACCCAUGUGUCCUACCGG [Fiskers Ex 6 - 81] (puzzle: Exclusion 6) | 756 | 728 | 595 |  |  | 
UAUUAGCAAGCGAGAUCCCACAUGAGGAUCACCCAUGUGCAUCCAGAAUUACUGGGUGCAAAAGCUCGUCUUAUAUA [Winner reversed engineered 2] (Eterna round: R97, puzzle: Sensor, turn-off variant 1) |  |  |  | 62.4 |  | 58.1
GUGUACGGAGGAUAUAUAUGGGCAGGCUGACCUGCAGCUUCACAUGAGGAUCACCCAUGUAGAAGGCUGUACAC [Mat - Exclusion 2 - Mod of Hyphema - D98] (puzzle: Exclusion 2) |  | 33.2 |  |  |  | 
UUUUACAUGCUGAGAUCCUACAUGAGGAUCACCCAUGUGGUCCGGUGACUUUUGUCACCGGAUUUUGCUCGUCUUGU [salish99_S_TOV1_R5_101] (Eterna round: R97, puzzle: Sensor, turn-off variant 1) |  |  |  | 84.8 |  | 108
GCAGCGUAUGUAGGAUAUCGGUCAGUUUCUGAUCGAGAAGGACAUGAGGAUCACCCAUGUAUAUUCUAGCGUGAGCUAGGCUGC [JL ENG1 3.70] (Eterna round: R96, puzzle: Exclusion NG 1) |  |  |  |  | 14.3 | 
GUAGGUUAAGUAAGGAUAUACCUCUGGAAACAGAGGUAGAAGGUACAUGAGGAUCACCCAUGUUUCUCUUUUGC [Mod of Eli 6 - Jieux - Brourd's mod of Exclusion 4] (Eterna round: R97, puzzle: Brourd's mod of Exclusion 4) |  |  |  | 21.8 |  | 18.7
UAUGUGUGAGGAUAUGGUAAAGAUAAGAUGAUGAAAGAACUCCAGAAGGCACAUGAGGAUCACCCAUGUAGAUA [Mat - Exclusion 4 - Mod of JL - D23] (puzzle: Exclusion 4) |  | 20.4 |  |  |  | 

Sequence | apparent KD of MS2 coat protein [1] [nM] | apparent KD of MS2 coat protein [2] [nM] | apparent KD of MS2 coat protein [3] [nM] | apparent KD of MS2 coat protein (input ligand: FMN 200 uM) [nM] | apparent KD of MS2 coat protein [4] [nM] | apparent KD of MS2 coat protein (input ligand: none) [nM]
CUGGUCCGAGGAUAUAUUAAGUGAUACAUGAGGAUCACCCAUGUAAUUUGAUGGAUAUAAAUAGAAGGCGGACUAG [Mat - Exclusion 5 - JL mod - D43] (puzzle: Exclusion 5) | 59.8 | 37.1 | 43.8 |  |  | 
AGGUGCUUCAGGAGACAUGAGGAUCACCCAUGUUGAGUUAGCGAGGAUAUCGGUAACCCUUGUGAUGAGAAGGCGCAAACCAGU [Ex NG3 #45] (Eterna round: R96, puzzle: Exclusion NG 3) |  |  |  | 39.5 | 14.4 | 29.1
UAAUGCAAGCAAAGAUCUUACAUGAGGAUCACCCAUGUGCUCGUCUUAUAAAGUACUAUCACGAAAGUGAUAGUACA [Mat - Sensor v3 - turn-off var 1 - Eli Mod - D91] (puzzle: Sensor v3, turn-off variant 1) | 27.6 | 109 | 26.3 |  |  | 
CAGUACGGAGGAUAUACAUGAGGAUCACCCAUGUGAGAGAUACUAGUGAGGUCGAUUAGUAGAAGGCUGUACUG [Mat X3R4 m6] (Eterna round: R97, puzzle: Exclusion 3) |  |  |  | 501 |  | 39.7
CCCACAAGCUUUUUGCUCGACAUGAGGAUCACCCAUGUUGAAUGGGUUAGAUGUGUGUGAAACACACACAUCUACCU [-32.5, -55.3 kcal, A 27%] (Eterna round: R97, puzzle: Sensor, turn-off variant 1) |  |  |  | 20.3 |  | 18.6
AUAAGGGCAGGAUAUGCAGAAAAGAUUGGCGUGGUCCUGACACAUGAGGAUCACCCAUGUAGAAGGGCCUAGCC [Maquzaar] (Eterna round: R97, puzzle: Exclusion 2) |  |  |  | 13.5 |  | 14.8
AAAGAAGAGAGAAAAUAACACAUGAGGAUCACCCAUGUGAGAAGUUGAGGGUGAUACAGGCUUUAUGCUCGUCUUAU (puzzle: Sensor v3, turn-off variant 1) | 173 | 204 |  |  |  | 
CCCGAGCUAGGAUAUGCACAAGGUAUCGAUCCACAACACACACAUGAGGAUCACCCAUGUAGAAGGAGCAUCGU [Eternabot (L2) Solution 27] (Eterna round: R97, puzzle: Exclusion 2) |  |  |  | 165 |  | 77.9
AGGAUGUUAGGAUAUCGAAGGUUGUGGCAGGCGGGAAUUUGCGAGAAGGAACAUGAGGAUCACCCAUGUGAAAU [JR_Exclu4_Sub044] (puzzle: Exclusion 4) |  | 19.7 |  |  |  | 
UAUAUAUAGUAAGGAUAUGUAAUUAUAUUAUAAACAGAAGGUACUGACAUGAGGAUCACCCAUGUUUUAGUGUGGGCAUGUAGA [JMF's solution 38] (Eterna round: R96, puzzle: Exclusion NG 1) |  |  |  | 85.9 | 60.1 | 97.7
UUUAUAUAUGAAGGAUAUACUUAACAUGAGGAUCACCCAUGUGGUGUUGUGAGUGAGUGAGUUUAGUAGAAGGUCAAUGAUUUU [JMF's solution 70] (Eterna round: R96, puzzle: Exclusion NG 2) |  |  |  | 810 | 306 | 360
UGCGAGUAAGGAUAUUCGCGACCGUUCACAAGAACGGUCGAGAAGAAGGUACUUGAGGAUCACCCAAGUCCUAG [Leonxegece] (Eterna round: R97, puzzle: Exclusion 4) |  |  |  | 103 |  | 24.2
AUAAUGUCAGGAUAUCAGUCGUACAGCUGCGGCUGUACGACUGAGAAGGGACAUGAGGAUCACCCAUGUGGUCA [E4/6-A3] (Eterna round: R97, puzzle: Exclusion 4) |  |  |  | 20.2 |  | 236
GGGUGACAUGAGGAUCACCCAUGUCAGGAUAUGAUACUAUGUACUUCGGUACAUAGUAUCAGAAGGGACAUCCC [Ex1-3: 16] (puzzle: Exclusion 1) |  | 41.8 |  |  |  | 
UUGAAAGGUGUAGGAUAUGUAUGAGGAUCACCCAUUAAUAAAUUUUAACCACGAGGAUCACCCGUGUAGAAGGACACCUUUCAA [pwkr exNG2 2xF5 1xFMN.18] (Eterna round: R96, puzzle: Exclusion NG 2) |  |  |  | 36.9 | 18 | 31.8
ACAAGCUUUUUGCAUGUUAGUUUUGUUGCUUCGUAUGUAACAUGAGGAUCACCCAUGUAAGACUGAUGUCGUCGUUU [JR_SV3TOV2_Sub088] (puzzle: Sensor v3, turn-off variant 2) | 44.9 | 47.8 | 61.6 |  |  | 
AGUACUAACACGUGAGUGUUAGUACAAUAAGCUUGUGAAACAUGAGGAUCACCCAUGUCCUCAUAAGCUCGUCUUAU [salish99_TOv2_r3_061] (Eterna round: R96, puzzle: Sensor v3, turn-off variant 2) |  |  |  | 16.5 | 496 | 18.5
